Laboratory results as given in patent US20230051304A1 (Regeneron, published 2023).
Numbering of substitutions follows the chain as printed. Where two headings read alike, the source gives them in different places.

Columns and labels:
[1] = molecular target: T1, murine IL12 receptor complex (IL12Rβ1 and IL12Rβ2) (mouse, UniProt Q60837 20-738; P97378 24-874); assay: cell-based or functional assay
[2] = molecular target: T1, murine IL12 receptor complex (IL12Rβ1 …); assay: cell-based or functional assay; remark: listed apart in the source
[3] = molecular target: T1, murine IL12 receptor complex (IL12Rβ1 …); assay: cell-based or functional assay; remark: listed apart in the source
[4] = molecular target: T1, murine IL12 receptor complex (IL12Rβ1 …); assay: flow cytometry on activated primary mouse T cells (CD25+ CD8+ CD90.2+), anti-human Fc detection, MFI
Experimental: Spleens were harvested from C57BL/6 mice and dissociated manually. Splenocytes were stimulated by culturing for 48 hours in RPMI+10% FBS+2 mM L-glutamine/Pen/Strep in the presence of anti-CD3 and anti-CD28 activation beads (Thermo/11456D) at a 1:3 (beads:splenocytes) ratio and in the presence of 30 U/mL human IL-2 (proleukin). […] Cells were washed once before plating 200,000 cells per well in a 96-well plate and staining indicated concentration of test IL12-Fc fusion proteins or variant molecules for 2 hours on ice. Cells were washed twice before staining for the Fc portion using an ahuFC antibody (Jackson Immuno 109-136-170). Data was acquired using a BD LSRFortessa™ X-20 instrument. Data plots represent geometric mean fluorescence intensity (MFI) of the ahuFC signal from CD25+, CD8+CD90.2+ T cells.

T1 sequence (Q60837 20-738, chain 1 of 2): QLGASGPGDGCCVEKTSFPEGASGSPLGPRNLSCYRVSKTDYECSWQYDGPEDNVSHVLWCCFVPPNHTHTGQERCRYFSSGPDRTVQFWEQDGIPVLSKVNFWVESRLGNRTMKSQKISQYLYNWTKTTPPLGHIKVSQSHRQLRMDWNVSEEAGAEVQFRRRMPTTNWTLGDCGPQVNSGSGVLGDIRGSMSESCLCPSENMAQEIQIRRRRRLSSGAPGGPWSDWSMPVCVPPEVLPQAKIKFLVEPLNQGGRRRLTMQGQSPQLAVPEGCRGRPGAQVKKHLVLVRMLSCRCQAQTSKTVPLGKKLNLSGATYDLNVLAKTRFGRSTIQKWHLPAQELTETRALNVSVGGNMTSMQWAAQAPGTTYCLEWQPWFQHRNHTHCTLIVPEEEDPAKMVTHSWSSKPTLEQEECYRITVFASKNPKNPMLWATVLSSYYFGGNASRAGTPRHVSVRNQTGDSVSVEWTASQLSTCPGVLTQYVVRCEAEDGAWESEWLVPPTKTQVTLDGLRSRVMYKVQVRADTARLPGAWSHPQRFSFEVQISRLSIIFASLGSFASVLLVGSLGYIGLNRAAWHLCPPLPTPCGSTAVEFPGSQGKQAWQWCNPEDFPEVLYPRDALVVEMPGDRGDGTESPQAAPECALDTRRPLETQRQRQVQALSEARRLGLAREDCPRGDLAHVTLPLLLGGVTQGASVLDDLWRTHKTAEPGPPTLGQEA
T1 sequence (P97378 24-874, chain 2 of 2): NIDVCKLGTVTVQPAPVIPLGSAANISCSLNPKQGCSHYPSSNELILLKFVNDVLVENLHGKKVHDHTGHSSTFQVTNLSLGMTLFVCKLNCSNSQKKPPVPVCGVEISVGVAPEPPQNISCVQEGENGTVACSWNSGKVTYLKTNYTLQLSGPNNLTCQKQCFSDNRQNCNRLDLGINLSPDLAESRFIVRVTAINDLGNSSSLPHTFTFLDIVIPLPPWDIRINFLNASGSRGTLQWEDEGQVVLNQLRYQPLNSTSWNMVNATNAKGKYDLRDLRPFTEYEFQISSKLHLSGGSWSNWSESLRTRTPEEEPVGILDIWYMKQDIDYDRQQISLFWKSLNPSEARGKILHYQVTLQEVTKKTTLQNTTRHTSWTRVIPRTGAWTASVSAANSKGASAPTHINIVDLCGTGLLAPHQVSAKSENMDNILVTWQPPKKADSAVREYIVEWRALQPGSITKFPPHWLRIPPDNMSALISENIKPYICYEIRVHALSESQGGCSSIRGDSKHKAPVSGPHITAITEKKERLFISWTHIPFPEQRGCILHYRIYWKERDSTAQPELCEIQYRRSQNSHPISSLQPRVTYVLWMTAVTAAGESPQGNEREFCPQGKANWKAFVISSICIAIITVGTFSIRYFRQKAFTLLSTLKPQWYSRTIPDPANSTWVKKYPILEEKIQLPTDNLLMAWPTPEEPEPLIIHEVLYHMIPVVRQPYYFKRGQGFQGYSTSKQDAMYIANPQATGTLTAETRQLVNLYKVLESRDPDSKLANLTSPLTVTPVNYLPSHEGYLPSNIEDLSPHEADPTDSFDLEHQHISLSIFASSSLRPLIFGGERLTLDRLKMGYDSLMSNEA

B1: Bivalent: Fc-IL12(p40-p35) (Fc fusion)
chain: ESKYGPPCPPCPAPPVAGPSVFLFPPKPKDTLMISRTPEVTCVVVDVSQEDPEVQFNWYVDGVEVHNAKTKPREEQFNSTYRVVSVLTVLHQDWLNGKEYKCKVSNKGLPSSIEKTISKAKGQPREPQVYTLPPSQEEMTKNQVSLTCLVKGFYPSDIAVEWESNGQPENNYKTTPPVLDSDGSFFLYSRLTVDKSRWQEGNVFSCSVMHEALHNHYTQKSLSLSLGKGGGGSGGGGSGGGGSMWELEKDVYVVEVDWTPDAPGETVNLTCDTPEEDDITWTSDQRHGVIGSGKTLTITVKEFLDAGQYTCHKGGETLSHSHLLLHKKENGIWSTEILKNFKNKTFLKCEAPNYSGRFTCSWLVQRNMDLKFNIKSSSSSPDSRAVTCGMASLSAEKVTLDQRDYEKYSVSCQEDVTCPTAEETLPIELALEARQQNKYENYSTSFFIRDIIKPDPPKNLQMKPLKNSQVEVSWEYPDSWSTPHSYFSLKFFVRIQRKKEKMKETEEGCNQKGAFLVEKTSTEVQCKGGNVCVQAQDRYYNSSCSKWACVPCRVRSGGGGSGGGGSGGGGSRVIPVSGPARCLSQSRNLLKTTDDMVKTAREKLKHYSCTAEDIDHEDITRDQTSTLKTCLPLELHKNESCLATRETSSTTRGSCLPPQKTSLMMTLCLGSIYEDLKMYQTEFQAINAALQNHNHQQIILDKGMLVAIDELMQSLNHNGETLRQKPPVGEADPYRVKMKLCILLHAFSTRVVTINRVMGYLSSA
[1]
  EC50 (M); STAT3-Luc reporter, CTLL2/STAT3-Luc cells: 9.95e-11 M
  Max fold induction; STAT3-Luc reporter, CTLL2/STAT3-Luc cells: 12.2 fold
[2]
  EC50 (M); STAT3-Luc reporter, CTLL2/STAT3-Luc cells: 1.85e-11 M
  Fold induction at 6.25 nM; STAT3-Luc reporter, CTLL2/STAT3-Luc cells: 6.73 fold
  Max fold induction; STAT3-Luc reporter, CTLL2/STAT3-Luc cells: 7.66 fold
[3]
  EC50 (M); STAT3-Luc reporter, CTLL2/STAT3-Luc cells: 6.11e-11 M
  Fold induction at 20 nM; STAT3-Luc reporter, CTLL2/STAT3-Luc cells: 12.8 fold
  Max fold induction; STAT3-Luc reporter, CTLL2/STAT3-Luc cells: 14.4 fold

B2: Fc-IL12(mutein 17) (Fc fusion)
chain: B1 chain with E336A, K438A
[1]
  EC50 (M); STAT3-Luc reporter, CTLL2/STAT3-Luc cells: 3.53e-10 M
  Max fold induction; STAT3-Luc reporter, CTLL2/STAT3-Luc cells: 9.67 fold

B3: Fc-IL12(mutein 14) (Fc fusion)
chain: B1 chain with E302A, F303A
[1]
  EC50 (M); STAT3-Luc reporter, CTLL2/STAT3-Luc cells: 3.79e-09 M
  Max fold induction; STAT3-Luc reporter, CTLL2/STAT3-Luc cells: 7.31 fold

B4: Fc-p40-p35 x Fc-IL12Rβ1(D1) (Fc fusion)
chain 1: ESKYGPPCPPCPAPPVAGPSVFLFPPKPKDTLMISRTPEVTCVVVDVSQEDPEVQFNWYVDGVEVHNAKTKPREEQFNSTYRVVSVLTVLHQDWLNGKEYKCKVSNKGLPSSIEKTISKAKGQPREPQVYTLPPSQEEMTKNQVSLSCAVKGFYPSDIAVEWESNGQPENNYKTTPPVLDSDGSFFLVSRLTVDKSRWQEGNVFSCSVMHEALHNRFTQKSLSLSPGKGGGGSGGGGSGGGGSQLGASGPGDGCCVEKTSFPEGASGSPLGPRNLSCYRVSKTDYECSWQYDGPEDNVSHVLWCCFVPPNHTHTGQERCRYFSSGPDRTVQFWEQDGIPVLSKVNFWVESRLGNRTMKSQKISQYLYNWTKTTPPL
chain 2: B1 chain with T147W
notes: Receptor-masked monovalent murine IL12; also called hIgG4s(HoleStar)-mIL12Rb1(D1) x hIgG4s(Knob)-mIL12p40-p35
[4]
  binding result: binds

B5: Fc-p40-p35 x Fc (Fc fusion)
chain 1: ESKYGPPCPPCPAPPVAGPSVFLFPPKPKDTLMISRTPEVTCVVVDVSQEDPEVQFNWYVDGVEVHNAKTKPREEQFNSTYRVVSVLTVLHQDWLNGKEYKCKVSNKGLPSSIEKTISKAKGQPREPQVYTLPPSQEEMTKNQVSLSCAVKGFYPSDIAVEWESNGQPENNYKTTPPVLDSDGSFFLVSRLTVDKSRWQEGNVFSCSVMHEALHNRFTQKSLSLSPGK
chain 2: B1 chain with T147W
notes: hIgG4s(HoleStar) x hIgG4s(Knob)-p40-p35, murine IL12; also called Fc-p40-p35×Fc control; unmasked monovalent control
[4]
  binding result: binds

B6: Fc-p40-p35 x Fc-IL12Rβ2(D1) (Fc fusion)
chain 1: ESKYGPPCPPCPAPPVAGPSVFLFPPKPKDTLMISRTPEVTCVVVDVSQEDPEVQFNWYVDGVEVHNAKTKPREEQFNSTYRVVSVLTVLHQDWLNGKEYKCKVSNKGLPSSIEKTISKAKGQPREPQVYTLPPSQEEMTKNQVSLSCAVKGFYPSDIAVEWESNGQPENNYKTTPPVLDSDGSFFLVSRLTVDKSRWQEGNVFSCSVMHEALHNRFTQKSLSLSPGKGGGGSGGGGSGGGGSNIDVCKLGTVTVQPAPVIPLGSAANISCSLNPKQGCSHYPSSNELILLKFVNDVLVENLHGKKVHDHTGHSSTFQVTNLSLGMTLFVCKLNCSNSQKKPPVPVCGVEISVGV
chain 2: B1 chain with T147W
notes: Receptor-masked monovalent murine IL12; also called hIgG4s(HoleStar)-mIL12Rb2(D1) x hIgG4s(Knob)-mIL12p40-p35
[4]
  binding result: binds

B7: Fc-IL12(mutein 16) (Fc fusion)
chain: B1 chain with W258A, F303A
[1]
  EC50 (M); STAT3-Luc reporter, CTLL2/STAT3-Luc cells: 1.67e-08 M
  Max fold induction; STAT3-Luc reporter, CTLL2/STAT3-Luc cells: 2.48 fold

B8: Fc-IL12(mutein 15) (Fc fusion)
chain: B1 chain with E302A, F303A, K327A
[1]
  Max fold induction; STAT3-Luc reporter, CTLL2/STAT3-Luc cells: 1.18 fold

B9: Fc-IL12Rβ1(D1)-p40-p35 x Fc (Fc fusion)
chain 1: B5 chain 1
chain 2: ESKYGPPCPPCPAPPVAGPSVFLFPPKPKDTLMISRTPEVTCVVVDVSQEDPEVQFNWYVDGVEVHNAKTKPREEQFNSTYRVVSVLTVLHQDWLNGKEYKCKVSNKGLPSSIEKTISKAKGQPREPQVYTLPPSQEEMTKNQVSLWCLVKGFYPSDIAVEWESNGQPENNYKTTPPVLDSDGSFFLYSRLTVDKSRWQEGNVFSCSVMHEALHNHYTQKSLSLSLGKGGGGSGGGGSGGGGSQLGASGPGDGCCVEKTSFPEGASGSPLGPRNLSCYRVSKTDYECSWQYDGPEDNVSHVLWCCFVPPNHTHTGQERCRYFSSGPDRTVQFWEQDGIPVLSKVNFWVESRLGNRTMKSQKISQYLYNWTKTTPPLGGGGSGGGGSGGGGSMWELEKDVYVVEVDWTPDAPGETVNLTCDTPEEDDITWTSDQRHGVIGSGKTLTITVKEFLDAGQYTCHKGGETLSHSHLLLHKKENGIWSTEILKNFKNKTFLKCEAPNYSGRFTCSWLVQRNMDLKFNIKSSSSSPDSRAVTCGMASLSAEKVTLDQRDYEKYSVSCQEDVTCPTAEETLPIELALEARQQNKYENYSTSFFIRDIIKPDPPKNLQMKPLKNSQVEVSWEYPDSWSTPHSYFSLKFFVRIQRKKEKMKETEEGCNQKGAFLVEKTSTEVQCKGGNVCVQAQDRYYNSSCSKWACVPCRVRSGGGGSGGGGSGGGGSRVIPVSGPARCLSQSRNLLKTTDDMVKTAREKLKHYSCTAEDIDHEDITRDQTSTLKTCLPLELHKNESCLATRETSSTTRGSCLPPQKTSLMMTLCLGSIYEDLKMYQTEFQAINAALQNHNHQQIILDKGMLVAIDELMQSLNHNGETLRQKPPVGEADPYRVKMKLCILLHAFSTRVVTINRVMGYLSSA
notes: Receptor-masked monovalent murine IL12; also called Fc x Fc-mIL12Rb1(D1)-mIL12p40-p35
[4]
  binding result: binds
